US20080299097A1

What was measured:
[1] = biological target: CXCR4 (human) (UniProt P61073); test: cell-based or functional assay
[2] = biological target: CX3CR1 (human) (UniProt P49238); test: cell-based or functional assay
UniProt P49238, sequence (P49238 whole entry): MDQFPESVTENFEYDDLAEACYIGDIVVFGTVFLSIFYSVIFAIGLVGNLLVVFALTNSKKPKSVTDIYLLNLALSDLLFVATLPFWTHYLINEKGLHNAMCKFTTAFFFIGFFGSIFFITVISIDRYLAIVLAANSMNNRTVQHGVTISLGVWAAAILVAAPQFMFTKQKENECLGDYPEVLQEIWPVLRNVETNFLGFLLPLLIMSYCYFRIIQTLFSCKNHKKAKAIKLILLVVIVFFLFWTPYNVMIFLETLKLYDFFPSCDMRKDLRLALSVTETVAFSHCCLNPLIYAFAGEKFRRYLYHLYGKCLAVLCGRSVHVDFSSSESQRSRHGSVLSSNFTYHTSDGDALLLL

UniProt P61073, sequence (P61073 whole entry): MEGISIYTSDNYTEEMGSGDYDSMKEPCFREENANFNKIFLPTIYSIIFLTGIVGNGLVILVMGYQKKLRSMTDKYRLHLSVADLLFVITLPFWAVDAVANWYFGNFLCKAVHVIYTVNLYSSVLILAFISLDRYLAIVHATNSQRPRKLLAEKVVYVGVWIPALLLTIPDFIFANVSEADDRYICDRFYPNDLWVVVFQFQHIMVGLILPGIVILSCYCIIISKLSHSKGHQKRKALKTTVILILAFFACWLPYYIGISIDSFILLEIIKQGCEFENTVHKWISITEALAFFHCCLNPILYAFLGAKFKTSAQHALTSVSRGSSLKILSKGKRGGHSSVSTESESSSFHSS

Row | Substance | decrease of neurosphere-induced migration of RS-MSCs and mMSCs [1] | decrease of neurosphere-induced migration of RS-MSCs and mMSCs [2]
1 | anti-human CXCR4 (clone 12G5; R&D Systems) (antibody) | 40% | –
2 | anti-human CX3CR1 (clone 2A9-1; MBL) (antibody) | – | 40%
